Drawing on patent US20140227179A1 (published 2014), this text covers EC50 for 1 molecule.

In this test the target is T1, MUC5ac mucin (PAM4 antigen) from CaPan1 human pancreatic carcinoma (human, UniProt P98088 28-5654, limits assumed, heavily glycosylated native mucin).
T1 construct: The antigen was never used as a pure recombinant protein; also called CaPan1 Ag; CaPan1 antigens
Briefly: ELISA on target mucin antigen (FIG. 9). Background: An ELISA detects its analyte on a solid surface through an enzyme-linked reagent.

B1: PAM4-F(ab′)2 (other)
chain 1: EVQLQESGPELVKPGASVKMSCKASGYTFPSYVLHWVKQKPGQGLEWIGYINPYNDGTQYNEKFKGKATLTSDKSSSTAYMELSRLTSEDSAVYYCARGFGGSYGFAYWGQGTLITVSA
chain 2: DIVMTQSPAIMSASPGEKVTMTCSASSSVSSSYLYWYQQKPGSSPKLWIYSTSNLASGVPARFSGSGSGTSYSLTISSMEAEDAASYFCHQWNRYPYTFGGGTKLEIK
As to B1, the EC50 was determined as 1.83 nM. This lies in the single-digit nanomolar range.

By EC50 is commonly meant the concentration giving half of the maximal effect.
